Key:
[1] = biological target: CD19 (UniProt P15391); test: cell-based or functional assay
[2] = biological target: CD19 CAR with CD34 spacer #C2 (human); test: MACS selection of transduced Jurkat cells with bead-labelled antibody, flow cytometry of fractions
[3] = biological target: CD19 CAR with CD34 spacer #C3 (human); test: as above
[4] = biological target: CD19 CAR with CD34 spacer #C4 (human); test: as above
[5] = biological target: CD19 CAR with CD34 spacer #C5 (human); test: as above
[6] = biological target: CD19 CAR with CD34 spacer #C7 (human); test: as above
[7] = biological target: CD19 CAR with NGFR/CD271 spacer #N3; test: as above
[8] = biological target: CD19 CAR with NGFR/CD271 spacer #N4; test: as above
CD19 CAR with NGFR/CD271 spacer #N4, sequence (P08138 66-227): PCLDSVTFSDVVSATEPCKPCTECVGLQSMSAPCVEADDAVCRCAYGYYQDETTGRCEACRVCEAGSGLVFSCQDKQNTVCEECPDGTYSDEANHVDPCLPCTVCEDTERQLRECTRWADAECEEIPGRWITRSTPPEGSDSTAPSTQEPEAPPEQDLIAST

CD19 CAR with NGFR/CD271 spacer #N3, sequence (P08138 108-227): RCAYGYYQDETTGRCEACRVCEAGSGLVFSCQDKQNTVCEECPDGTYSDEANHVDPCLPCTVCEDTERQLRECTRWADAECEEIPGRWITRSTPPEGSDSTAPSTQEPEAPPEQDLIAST
CD19 CAR with CD34 spacer #C2 (human), sequence (P28906 32-63): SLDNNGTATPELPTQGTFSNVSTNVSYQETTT
CD19 CAR with CD34 spacer #C5 (human), sequence (P28906 42-110): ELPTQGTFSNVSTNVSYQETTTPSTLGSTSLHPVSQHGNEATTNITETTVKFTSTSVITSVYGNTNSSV
CD19 CAR with CD34 spacer #C4 (human), sequence (P28906 32-90): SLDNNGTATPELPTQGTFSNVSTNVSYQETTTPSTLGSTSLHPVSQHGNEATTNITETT
CD19 CAR with CD34 spacer #C3 (human), sequence (P28906 42-90): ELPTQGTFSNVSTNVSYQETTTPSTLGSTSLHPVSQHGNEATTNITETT
CD19 CAR with CD34 spacer #C7 (human), sequence (P28906 42-220): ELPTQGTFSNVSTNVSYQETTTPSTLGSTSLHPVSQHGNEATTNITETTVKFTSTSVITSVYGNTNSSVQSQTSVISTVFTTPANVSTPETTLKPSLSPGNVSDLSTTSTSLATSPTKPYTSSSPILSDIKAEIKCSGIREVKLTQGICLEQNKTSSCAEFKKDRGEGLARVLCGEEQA
UniProt P15391, sequence (P15391 20-556 limits assumed): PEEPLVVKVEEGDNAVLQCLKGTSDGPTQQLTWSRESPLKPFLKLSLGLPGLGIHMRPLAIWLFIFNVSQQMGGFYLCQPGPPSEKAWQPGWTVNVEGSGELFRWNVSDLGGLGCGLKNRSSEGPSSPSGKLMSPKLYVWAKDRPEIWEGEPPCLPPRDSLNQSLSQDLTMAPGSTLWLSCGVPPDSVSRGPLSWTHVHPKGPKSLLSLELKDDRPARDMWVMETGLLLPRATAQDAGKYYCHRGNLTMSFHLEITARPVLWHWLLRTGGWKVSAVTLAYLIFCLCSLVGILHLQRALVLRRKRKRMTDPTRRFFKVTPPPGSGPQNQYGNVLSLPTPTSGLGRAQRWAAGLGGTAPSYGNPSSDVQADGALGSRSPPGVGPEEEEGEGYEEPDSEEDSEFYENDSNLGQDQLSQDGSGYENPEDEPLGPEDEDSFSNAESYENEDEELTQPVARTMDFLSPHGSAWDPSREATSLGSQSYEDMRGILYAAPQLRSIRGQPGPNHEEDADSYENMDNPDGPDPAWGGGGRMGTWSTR

## CD19 CAR with the IgG4 CH2CH3 as spacer domain (from UniProt P01861 99-327)
[1]
  killing of REH cells at 0.1:1 effector to target cell ratio: 48.9%

## CD34 monoclonal antibody QBend10
[2]
  percent positive cells before MACS: 68.7%
  percent positive cells in flow through: 68.1%
[3]
  percent positive cells before MACS: 61.6%
  percent positive cells in flow through: 47.6%
[4]
  percent positive cells before MACS: 64.3%
  percent positive cells in flow through: 47%
[5]
  percent positive cells before MACS: 65.5%
  percent positive cells in flow through: 41.1%
[6]
  percent positive cells before MACS: 78.4%
  percent positive cells in flow through: 67.1%

## CD271 monoclonal antibody ME20.4
[7]
  percent positive cells before MACS: 60.1%
  percent positive cells in flow through: 57.2%
[8]
  percent positive cells before MACS: 51.4%
  percent positive cells in flow through: 49.7%
